Measurements published in PMC9709245, “The stem region of α1,6-fucosyltransferase FUT8 is required for multimer formation but not catalytic activity” (The Journal of Biological Chemistry, 2022).

T1: alpha-1,6-fucosyltransferase FUT8 WT (human, UniProt Q9BYC5 1-575)
T1 construct: No chain bears both Myc and 3xFLAG; also called Myc-FUT8; Myc-tagged FUT8; source: HEK293 FUT8KO, transfected, in lysate; not shown: Myc (copy from pcDNA6-mycHisA), C-terminal, kept; His tag (from the vector pcDNA6-mycHisA); 3xFLAG (other copy; from pME-3xFLAG), C-terminal, kept
T1 sequence (looked up): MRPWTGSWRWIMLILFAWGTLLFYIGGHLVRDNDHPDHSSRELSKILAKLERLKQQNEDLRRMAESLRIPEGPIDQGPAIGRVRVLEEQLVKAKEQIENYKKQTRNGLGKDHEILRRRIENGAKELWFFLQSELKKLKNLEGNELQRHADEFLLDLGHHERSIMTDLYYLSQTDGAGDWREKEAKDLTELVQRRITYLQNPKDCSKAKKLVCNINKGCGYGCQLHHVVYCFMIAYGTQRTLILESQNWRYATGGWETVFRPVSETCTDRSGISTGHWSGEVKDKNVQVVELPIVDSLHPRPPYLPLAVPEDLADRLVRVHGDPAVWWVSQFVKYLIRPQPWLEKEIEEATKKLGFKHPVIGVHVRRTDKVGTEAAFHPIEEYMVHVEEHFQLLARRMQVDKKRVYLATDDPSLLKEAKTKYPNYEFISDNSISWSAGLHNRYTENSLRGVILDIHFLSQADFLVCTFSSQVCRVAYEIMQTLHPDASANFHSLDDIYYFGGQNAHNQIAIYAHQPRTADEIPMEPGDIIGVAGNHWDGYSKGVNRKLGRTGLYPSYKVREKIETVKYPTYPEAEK


Key:
[1] = molecular target: T1, alpha-1,6-fucosyltransferase FUT8 WT; experiment: co-IP; lysates (TBS, 1% Triton X-100) of HEK293 FUT8KO cells coexpressing Myc-tagged FUT8 WT or mutant with 3xFLAG-FUT8 WT; anti-DYKDDDDK antibody magnetic beads, 4 °C overnight; anti-Myc blot; IP signal divided by input, relative to FUT8 WT; details: partners not purified
[2] = molecular target: the molecule itself; experiment: split reporter (BiFC, NanoBiT); NanoBiT; LgBiT and SmBiT fusions coexpressed in HEK293 FUT8KO cells; 0.6 μg of lysate protein (TBS, 1% Triton X-100) with Nano-Glo Live Cell Substrate at RT; luminescence relative to empty-vector (Mock) sample
[3] = molecular target: the molecule itself; experiment: native gel or EMSA; Blue Native PAGE (4% to 16%) of purified soluble His-FUT8, Western blot with anti-FUT8

Binder	coprecipitated anti-Myc signal (IP/input) relative to FUT8 WT [1]	other results
FUT8Δstem-GSx40 (enzyme, human, human FUT8, start codon to the 87th base of the cDNA; the stem region Val30-Leu108 is replaced; glycine-serine repeat of 80 amino acids; human FUT8, 325th to 1725th base of the cDNA (coiled-coil domain to the C terminus); Anti-Myc blots show two bands (full size and about 50 kDa); also called Myc-tagged FUT8Δstem-GSx40; source: HEK293 FUT8KO, transfected, in lysate; not shown: Myc, C-terminal, …) MRPWTGSWRWIMLILFAWGTLLFYIGGHLGSGSGSGSGSGSGSGSGSGSGSGSGSGSGSGSGSGSGSGSGSGSGSGSGSGSGSGSGSGSGSGSGSGSGSGSGSGSGSGSGKDHEILRRRIENGAKELWFFLQSELKKLKNLEGNELQRHADEFLLDLGHHERSIMTDLYYLSQTDGAGDWREKEAKDLTELVQRRITYLQNPKDCSKAKKLVCNINKGCGYGCQLHHVVYCFMIAYGTQRTLILESQNWRYATGGWETVFRPVSETCTDRSGISTGHWSGEVKDKNVQVVELPIVDSLHPRPPYLPLAVPEDLADRLVRVHGDPAVWWVSQFVKYLIRPQPWLEKEIEEATKKLGFKHPVIGVHVRRTDKVGTEAAFHPIEEYMVHVEEHFQLLARRMQVDKKRVYLATDDPSLLKEAKTKYPNYEFISDNSISWSAGLHNRYTENSLRGVILDIHFLSQADFLVCTFSSQVCRVAYEIMQTLHPDASANFHSLDDIYYFGGQNAHNQIAIYAHQPRTADEIPMEPGDIIGVAGNHWDGYSKGVNRKLGRTGLYPSYKVREKIETVKYPTYPEAEK	0.122 relative to FUT8 WT	
FUT8 stem (N-terminal part of FUT8, cytosolic region to stem region) fused with LgBiT or SmBiT (domain or fragment, human, UniProt Q9BYC5 1-108, looked up, human FUT8, 1st to 326th base of the cDNA: cytosolic region, transmembrane region and stem region (stem ends at Leu108); Two differently tagged copies of the same fragment; no chain bears both LgBiT and SmBiT; The 326th base is two bases past codon 108; also called FUT8 stem-LgBiT; FUT8 stem-SmBiT; source: HEK293 FUT8KO, transfected, in lysate; not shown: LgBiT (one copy; vector pBiT1.1-C …)) MRPWTGSWRWIMLILFAWGTLLFYIGGHLVRDNDHPDHSSRELSKILAKLERLKQQNEDLRRMAESLRIPEGPIDQGPAIGRVRVLEEQLVKAKEQIENYKKQTRNGL		relative luminescence (NanoBiT, relative to Mock) [2]: 165 relative to Mock
FUT8Δhelix 2 (enzyme, human, UniProt Q9BYC5 1-575, looked up, human FUT8; start codon to the 234th base joined to the 316th to 1725th base of the cDNA, so that Helix 2 (Ala79-Arg105) is missing; also called Myc-tagged FUT8 Δhelix 2; source: HEK293 FUT8KO, transfected, in lysate; not shown: Myc, C-terminal, kept) MRPWTGSWRWIMLILFAWGTLLFYIGGHLVRDNDHPDHSSRELSKILAKLERLKQQNEDLRRMAESLRIPEGPIDQGPNGLGKDHEILRRRIENGAKELWFFLQSELKKLKNLEGNELQRHADEFLLDLGHHERSIMTDLYYLSQTDGAGDWREKEAKDLTELVQRRITYLQNPKDCSKAKKLVCNINKGCGYGCQLHHVVYCFMIAYGTQRTLILESQNWRYATGGWETVFRPVSETCTDRSGISTGHWSGEVKDKNVQVVELPIVDSLHPRPPYLPLAVPEDLADRLVRVHGDPAVWWVSQFVKYLIRPQPWLEKEIEEATKKLGFKHPVIGVHVRRTDKVGTEAAFHPIEEYMVHVEEHFQLLARRMQVDKKRVYLATDDPSLLKEAKTKYPNYEFISDNSISWSAGLHNRYTENSLRGVILDIHFLSQADFLVCTFSSQVCRVAYEIMQTLHPDASANFHSLDDIYYFGGQNAHNQIAIYAHQPRTADEIPMEPGDIIGVAGNHWDGYSKGVNRKLGRTGLYPSYKVREKIETVKYPTYPEAEK	0.5 relative to FUT8 WT	
FUT8Δhelix 1 (enzyme, human, UniProt Q9BYC5 1-575, looked up, human FUT8; start codon to the 105th base joined to the 202nd to 1725th base of the cDNA, so that Helix 1 (Pro36-Leu67) is missing; also called Myc-tagged FUT8 Δhelix 1; source: HEK293 FUT8KO, transfected, in lysate; not shown: Myc, C-terminal, kept) MRPWTGSWRWIMLILFAWGTLLFYIGGHLVRDNDHRIPEGPIDQGPAIGRVRVLEEQLVKAKEQIENYKKQTRNGLGKDHEILRRRIENGAKELWFFLQSELKKLKNLEGNELQRHADEFLLDLGHHERSIMTDLYYLSQTDGAGDWREKEAKDLTELVQRRITYLQNPKDCSKAKKLVCNINKGCGYGCQLHHVVYCFMIAYGTQRTLILESQNWRYATGGWETVFRPVSETCTDRSGISTGHWSGEVKDKNVQVVELPIVDSLHPRPPYLPLAVPEDLADRLVRVHGDPAVWWVSQFVKYLIRPQPWLEKEIEEATKKLGFKHPVIGVHVRRTDKVGTEAAFHPIEEYMVHVEEHFQLLARRMQVDKKRVYLATDDPSLLKEAKTKYPNYEFISDNSISWSAGLHNRYTENSLRGVILDIHFLSQADFLVCTFSSQVCRVAYEIMQTLHPDASANFHSLDDIYYFGGQNAHNQIAIYAHQPRTADEIPMEPGDIIGVAGNHWDGYSKGVNRKLGRTGLYPSYKVREKIETVKYPTYPEAEK	0.0934 relative to FUT8 WT	
soluble His-FUT8 (Arg68-Lys575) (domain or fragment, human, UniProt Q9BYC5 68-575, looked up, human FUT8, soluble form from Arg68 to the C terminus (Lys575); Plasmid pcDNA-IH/FUT8; also called purified soluble FUT8; recombinant soluble FUT8; source: COS7, transfected, purified from the culture medium (Ni2+ column, NAP-5 desalting)) RIPEGPIDQGPAIGRVRVLEEQLVKAKEQIENYKKQTRNGLGKDHEILRRRIENGAKELWFFLQSELKKLKNLEGNELQRHADEFLLDLGHHERSIMTDLYYLSQTDGAGDWREKEAKDLTELVQRRITYLQNPKDCSKAKKLVCNINKGCGYGCQLHHVVYCFMIAYGTQRTLILESQNWRYATGGWETVFRPVSETCTDRSGISTGHWSGEVKDKNVQVVELPIVDSLHPRPPYLPLAVPEDLADRLVRVHGDPAVWWVSQFVKYLIRPQPWLEKEIEEATKKLGFKHPVIGVHVRRTDKVGTEAAFHPIEEYMVHVEEHFQLLARRMQVDKKRVYLATDDPSLLKEAKTKYPNYEFISDNSISWSAGLHNRYTENSLRGVILDIHFLSQADFLVCTFSSQVCRVAYEIMQTLHPDASANFHSLDDIYYFGGQNAHNQIAIYAHQPRTADEIPMEPGDIIGVAGNHWDGYSKGVNRKLGRTGLYPSYKVREKIETVKYPTYPEAEK		binding result [3]: binds
FUT8 Y100A/R105A (enzyme, human, UniProt Q9BYC5 1-575, looked up, human FUT8 with two point mutations in Helix 2 of the stem region; also called Myc-tagged FUT8 Y100A/R105A; source: HEK293 FUT8KO, transfected, in lysate; not shown: Myc, C-terminal, kept) MRPWTGSWRWIMLILFAWGTLLFYIGGHLVRDNDHPDHSSRELSKILAKLERLKQQNEDLRRMAESLRIPEGPIDQGPAIGRVRVLEEQLVKAKEQIENAKKQTANGLGKDHEILRRRIENGAKELWFFLQSELKKLKNLEGNELQRHADEFLLDLGHHERSIMTDLYYLSQTDGAGDWREKEAKDLTELVQRRITYLQNPKDCSKAKKLVCNINKGCGYGCQLHHVVYCFMIAYGTQRTLILESQNWRYATGGWETVFRPVSETCTDRSGISTGHWSGEVKDKNVQVVELPIVDSLHPRPPYLPLAVPEDLADRLVRVHGDPAVWWVSQFVKYLIRPQPWLEKEIEEATKKLGFKHPVIGVHVRRTDKVGTEAAFHPIEEYMVHVEEHFQLLARRMQVDKKRVYLATDDPSLLKEAKTKYPNYEFISDNSISWSAGLHNRYTENSLRGVILDIHFLSQADFLVCTFSSQVCRVAYEIMQTLHPDASANFHSLDDIYYFGGQNAHNQIAIYAHQPRTADEIPMEPGDIIGVAGNHWDGYSKGVNRKLGRTGLYPSYKVREKIETVKYPTYPEAEK	1.56 relative to FUT8 WT	
FUT8Δstem-GSx22 (enzyme, human, human FUT8, start codon to the 87th base of the cDNA; the stem region Val30-Leu108 is replaced; glycine-serine repeat of 44 amino acids; human FUT8, 325th to 1725th base of the cDNA (coiled-coil domain to the C terminus); Anti-Myc blots show two bands (full size and about 50 kDa); also called Myc-tagged FUT8Δstem-GSx22; source: HEK293 FUT8KO, transfected, in lysate; not shown: Myc, C-terminal, …) MRPWTGSWRWIMLILFAWGTLLFYIGGHLGSGSGSGSGSGSGSGSGSGSGSGSGSGSGSGSGSGSGSGSGSGSGKDHEILRRRIENGAKELWFFLQSELKKLKNLEGNELQRHADEFLLDLGHHERSIMTDLYYLSQTDGAGDWREKEAKDLTELVQRRITYLQNPKDCSKAKKLVCNINKGCGYGCQLHHVVYCFMIAYGTQRTLILESQNWRYATGGWETVFRPVSETCTDRSGISTGHWSGEVKDKNVQVVELPIVDSLHPRPPYLPLAVPEDLADRLVRVHGDPAVWWVSQFVKYLIRPQPWLEKEIEEATKKLGFKHPVIGVHVRRTDKVGTEAAFHPIEEYMVHVEEHFQLLARRMQVDKKRVYLATDDPSLLKEAKTKYPNYEFISDNSISWSAGLHNRYTENSLRGVILDIHFLSQADFLVCTFSSQVCRVAYEIMQTLHPDASANFHSLDDIYYFGGQNAHNQIAIYAHQPRTADEIPMEPGDIIGVAGNHWDGYSKGVNRKLGRTGLYPSYKVREKIETVKYPTYPEAEK	0.127 relative to FUT8 WT	
